In the supplement of paper PMC10567573 one finds protein stability index data, which are given here for 72 sequences.

This series in a line: protein stability index of a GFP-peptide fusion (GPS, HEK-293T) (PSI 1-6); higher = more stable.
Where [1] appears, read: treatment: DMSO, c terminus: a fixed tail appended.
Where [2] appears, read: treatment: MLN4924 1 uM, 8 h, c terminus: a fixed tail appended.
Setting [3] is: treatment: DMSO, c terminus: native.
The mark [4] stands for this setting: treatment: MLN4924 1 uM, 8 h, c terminus: native.

± gives the standard deviation.
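Further: 24-mer peptide tiles fused after GFP, lentivirally expressed, FACS-sorted into six equal bins by GFP/DsRed ratio, decoded by Illumina sequencing, PSI is the read-weighted mean bin number.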

Regarding AAAFPTEDSRTSKESMSEADRAQK [EHMT1], the protein stability index under setting [1] is 5.59 ± 0.25 and the protein stability index under setting [2] worked out at 5.514 ± 0.053.
The like results for AADGETNGSCENSDASSHANAAKH [EHMT1] were, in that order, 5.51 ± 0.12 and 5.35 ± 0.14.
As to AAIGVTTSPVLPSLIQLLGRNFIL [HACD3], the protein stability index is, setting by setting: under setting [1], 2.67 ± 0.19; under setting [2], 2.55 ± 0.6.
For AAMEGATLDQTTSEEAPGGTELIQ [HDAC6], in that order: 5.64 ± 0.12 and 5.47 ± 0.22.
For AARPDVKCVVHIHTPAGAAVSAMK [ADD1], the protein stability index runs as follows: under setting [1], 2.95 ± 0.28; under setting [2], 3.11 ± 0.28.
AAVVTSPPPTTAPHKERYFDRVDE [ADD1] had a protein stability index under setting [1] of 4.77 ± 0.44 and a protein stability index under setting [2] of 4.73 ± 0.34.
As for ADADCFVCVFLSHGEGNHIYAYDA [CASP6], the protein stability index worked out at 2.82 ± 0.66 under setting [1] and 2.81 ± 0.75 under setting [2].
In the case of ADDESLLRTSNGQPVKTAGEITQH [DNAAF3], the protein stability index is, setting by setting: under setting [1], 5.26 ± 0.35; under setting [2], 5.26 ± 0.2.
Consider ADDPTSGFSSIPDAFWWAVVTMTT [KCNA3], for which the protein stability index runs as follows: under setting [1], 2.94 ± 0.92; under setting [2], 2.6 ± 0.4.
In the case of ADGFGDNPFYHCLVAEILPAPGKL [SAT2], the protein stability index under setting [1] was 2.27 ± 0.14 and the protein stability index under setting [2] came out at 2.37 ± 0.42.
For ADLSSGSSGEDDDFKSCPQGPQGR [PWWP2B], the protein stability index by setting is: under setting [1], 5.36 ± 0.15; under setting [2], 5.52 ± 0.13.
As for ADPMDWSPSNVQKWLLWTEHQYRL [SPDEF], the protein stability index is, setting by setting: under setting [1], 2.47 ± 0.21; under setting [2], 2.43 ± 0.35.
As to ADQWKSSNKSLVEALGLEAEGAVP [RHOBTB1], the protein stability index runs as follows: under setting [1], 5.1 ± 0.17; under setting [2], 4.83 ± 0.22.
For ADRCSPKEDQAWDGASQDCPPLPA [FBXO34], in that order: 5.27 ± 0.18 and 4.99 ± 0.14.
As for ADSGADPKGEPGSKQSPPMASSPI [FBF1], the protein stability index by setting is: under setting [1], 5.44 ± 0.26; under setting [2], 5.51 ± 0.15.
The like results for ADSQITTIGNLVPQKTYSVKVLAF [PTPRD] were, in that order, 2.46 ± 0.56 and 2.17 ± 0.28.
Consider ADTKKRHTPRGHAESTSNRQPRKQ [SMOC2], for which the protein stability index under setting [1] turned out to be 5.34 ± 0.2 and the protein stability index under setting [2] was 5.29 ± 0.15.
Take AEAEPEDQDEGEWGLDQEQVFSLG [ZBED1]: the protein stability index is, setting by setting: under setting [1], 5.34 ± 0.44; under setting [2], 5.52 ± 0.44.
Take AELQCEVAALREEQKVLSRLVESL [RASAL3]: the protein stability index is, setting by setting: under setting [1], 4.09 ± 0.23; under setting [2], 3.94 ± 0.37.
For AFPGASHESSGNPPLRVIVKDALF [RHOBTB3], the protein stability index is, setting by setting: under setting [1], 2.96 ± 0.28; under setting [2], 3.25 ± 0.41.
As for AFQLLRRFVQAEGRRATLQRLVEA [TRADD], the protein stability index is, setting by setting: under setting [1], 2.19 ± 0.15; under setting [2], 2.26 ± 0.38.
For the sequence AGEGLPQVYYFGPCGKYNAMVLEL [CSNK1G1], the protein stability index reads like this: under setting [1], 3.19 ± 0.65; under setting [2], 2.65 ± 0.94.
As to AGNDDSFGSLPSPKELSSFSFSMK [DLC1], the protein stability index reads like this: under setting [1], 3.75 ± 0.2; under setting [2], 3.87 ± 0.21.
In the case of AGSSNLPAPERTMAGLSKEPNTLR [VENTX], the protein stability index amounted to 4.48 ± 0.45 under setting [1] and 4.71 ± 0.47 under setting [2].
The like results for AGTSSHGCWAWPLAGLSVGRSSLT [PXN] were, in that order, 2.5 ± 0.26 and 2.61 ± 0.26.
The like results for AHHPLHPHLMQEHMGTNVIVANTM [HNF4A] were, in that order, 3.2 ± 0.23 and 3.21 ± 0.17.
Regarding AHRAILVARCEVMAAMFNGNYMEA [RHOBTB3], the protein stability index by setting is: under setting [1], 2.54 ± 0.95; under setting [2], 2.08 ± 0.97.
On to AIEKAFQLWSNVTPLTFTKVSEGQ [MMP1], for which the protein stability index was 2.45 ± 0.49 under setting [1] and 2.3 ± 0.33 under setting [2].
For AISPGRFPEALDELPLPPFLQPLD [ANKRD9], the protein stability index turned out to be 3.91 ± 0.32 under setting [1] and 3.96 ± 0.18 under setting [2].
For the sequence AKIEVEKLKAIRLRHDLPEYNSL [RAD54B], the protein stability index by setting is: under setting [3], 3.62 ± 0.21; under setting [4], 3.81 ± 0.2.
AKVKPFDPKITCKQECLITTFQDV [TPH1] showed a protein stability index under setting [1] of 2.75 ± 0.52 and a protein stability index under setting [2] of 2.42 ± 0.52.
In the case of ALGAPSKSPSSPQAAFTQQGMEGI [TBX5], the protein stability index by setting is: under setting [1], 4.59 ± 0.37; under setting [2], 4.51 ± 0.19.
The like results for ALKAAKREQEKKPKKEANQAPKSK [LRRC59] were, in that order, 5.24 ± 0.27 and 5.28 ± 0.18.
For ALPSSAPSGPPPPPPSVLGVGPVA [WASL], in that order: 4.54 ± 0.15 and 4.82 ± 0.25.
As to ALQEYSSISEKLSSTNFAMKRDVQ [C8orf76], the protein stability index runs as follows: under setting [1], 3.26 ± 0.18; under setting [2], 3.48 ± 0.43.
As to AMDLGFFVVMGVIGGLLGATFNCL [CLCN6], the protein stability index was 2.68 ± 0.13 under setting [1] and 3.19 ± 0.056 under setting [2].
As for AMFTGGMKEQDLMCIKLHGVSKVG [KLHL13], the protein stability index is 2.54 ± 0.42 under setting [1] and 2.58 ± 0.33 under setting [2].
The like results for ANGEVTYSFRKLPDTQLLKFQLNK [PCDHGA10] were, in that order, 2.83 ± 0.33 and 2.85 ± 0.24.
For ANPFQAYLDVDLTLTREQTERLSH [RTN2], in that order: 3.65 ± 0.3 and 3.67 ± 0.31.
The like results for APALPPGGTDPHGYHQVPGSAAPG [FOXJ1] were, in that order, 5.16 ± 0.18 and 5.38 ± 0.4.
For the sequence APGEEEEEEEEATNTHPPASLPSQ [CHGA], the protein stability index runs as follows: under setting [1], 5.57 ± 0.34; under setting [2], 5.71 ± 0.19.
APPLQAETPGSAVDYPLHDLVLHT [TNXB] returned a protein stability index under setting [1] of 4.16 ± 0.23 and a protein stability index under setting [2] of 4.17 ± 0.2.
Consider AQEALREKAAALERQLKVMASDHR [LRRC45], for which the protein stability index is 4.26 ± 0.27 under setting [1] and 4.29 ± 0.23 under setting [2].
Consider AQTIPTKDRLEGLLAFKEKRPPRY [AUH], for which the protein stability index reads like this: under setting [1], 3.73 ± 0.24; under setting [2], 4.06 ± 0.24.
In the case of ARIRSHSWLESCIVGWRCRVGQWV [GMPPB], the protein stability index is, setting by setting: under setting [1], 2.27 ± 0.3; under setting [2], 2.262 ± 0.009.
ARKYFERLPGGGWTLRRTKELRKD [DYRK1B]: the protein stability index runs as follows: under setting [1], 3.66 ± 0.45; under setting [2], 3.86 ± 0.44.
On to ARLKKVLIVGAPIWFRVPYSIISL [PTPN9], for which the protein stability index by setting is: under setting [1], 3.32 ± 0.79; under setting [2], 2.58 ± 1.
As for ASENHGCEHECVNADGSYLCQCHE [MATN2], the protein stability index runs as follows: under setting [1], 5.46 ± 0.17; under setting [2], 5.49 ± 0.38.
For the sequence ASQPVKKQQENATSCSLELIGDLI [WDR41], the protein stability index by setting is: under setting [1], 3.47 ± 0.27; under setting [2], 3.45 ± 0.38.
In turn, ASSASAFLTAPLLEFLLALYFLFA [CMTM3] gave a protein stability index under setting [1] of 2.34 ± 0.79 and a protein stability index under setting [2] of 2.63 ± 0.88.
In the case of ASYSGKAADVWSLGVALFTMLAGH [TRIB3], the protein stability index under setting [1] was 2.99 ± 0.43 and the protein stability index under setting [2] amounted to 2.75 ± 0.54.
For ATLFFHYIKTPLFNPEVAKYLKVP [IQUB], the protein stability index reads like this: under setting [1], 2.93 ± 0.21; under setting [2], 2.57 ± 0.66.
Take ATNQCTIDKNRRKSCQACRLRKCY [ESR2]: the protein stability index is, setting by setting: under setting [1], 3.39 ± 0.25; under setting [2], 3.47 ± 0.18.
The like results for ATNSSWVVVFKALVTTHHLMVHGN [SNAP91] were, in that order, 3.43 ± 0.31 and 3.4 ± 0.28.
As for AVATIVKPLSAIPQPTITKQEVI [HNF4A], the protein stability index came out at 2.43 ± 0.28 under setting [3] and 2.37 ± 0.19 under setting [4].
Take AVCMFLASKLKETSPLTAEKLCIY [CCND2]: the protein stability index under setting [1] is 2.84 ± 0.61 and the protein stability index under setting [2] was 2.44 ± 0.56.
Take AVGGRLRLVPGGQRPADVPEPGRA [HAGHL]: the protein stability index by setting is: under setting [1], 4.22 ± 0.38; under setting [2], 4.16 ± 0.43.
For the sequence AVIQHRPSRQYATLDVYNPFETRE [SCAMP3], the protein stability index is, setting by setting: under setting [1], 3.42 ± 0.23; under setting [2], 3.39 ± 0.27.
As for AVLYPRFMGTISDVKTNVQLLKGR [CD207], the protein stability index by setting is: under setting [1], 2.49 ± 0.11; under setting [2], 2.56 ± 0.16.
For the sequence AYLELEITLSQEQIQKYTDCLQFY [RTN1], the protein stability index is, setting by setting: under setting [1], 2.57 ± 0.4; under setting [2], 3.04 ± 0.86.
CEALEDSDGRQDSPAGELPKTVQQ [MATN2]: the protein stability index reads like this: under setting [1], 5.55 ± 0.33; under setting [2], 5.56 ± 0.17.
The like results for CFQDFKEEKPQENKTWREQYLRLP [ELOA2] were, in that order, 3.15 ± 0.35 and 3.25 ± 0.41.
On to CGSQLSSTKGSRSNLSTRDASILT [NETO1], for which the protein stability index reads like this: under setting [1], 2.62 ± 0.2; under setting [2], 2.65 ± 0.21.
In the case of CPHTPEFSVTGGTEEKSSLLMSCL [RPAIN], the protein stability index was 3.38 ± 0.22 under setting [1] and 3.49 ± 0.074 under setting [2].
CPPGGIHQVTVNESLLAPLNVELD [KRT71]: the protein stability index came out at 4.63 ± 0.29 under setting [1] and 4.54 ± 0.23 under setting [2].
As for CPTLIYRETYPRTPYVRWNYVAKN [SOAT2], the protein stability index runs as follows: under setting [1], 2.06 ± 0.23; under setting [2], 2.36 ± 0.39.
For CSCEWMAAMFGGSFVESANSEVYL [RHOBTB1], in that order: 2.96 ± 0.62 and 2.85 ± 0.89.
As for CTLRQKLIFSPCSDCEEEEEEEEE [WEE1], the protein stability index by setting is: under setting [1], 5.04 ± 0.27; under setting [2], 5 ± 0.26.
The like results for DAFWWAVVTMTTVGYGDMHPVTIG [KCNA3] were, in that order, 3.67 ± 0.52 and 3.17 ± 0.31.
Turning to DAISWYQKKIGAYDQQIWEKSIEQ [PHTF1], the protein stability index came to 2.77 ± 0.037 under setting [1] and 2.79 ± 0.34 under setting [2].
As to DALDKIRYESLTDPSKLDSGKELK [HSP90AB1], the protein stability index was found to be 5.06 ± 0.1 under setting [1] and 5 ± 0.16 under setting [2].
Turning to DCPKIVEPHGKMFNEQTWEVSQQD [ZSCAN9], the protein stability index by setting is: under setting [1], 5.16 ± 0.089; under setting [2], 5.18 ± 0.11.
